Data published in patent publication US20170275357A1 (Bristol-Myers Squibb, published 2017).
Like-named read-outs stand apart in the source and are kept apart here.

B1: wild-type IL-23 (His-tagged p19 / non-tagged p40) (ligand, human)
chain 1: RAVPGGSSPAWTQCQQLSQKLCTLAWSAHPLVGHMDLREEGDEETTNDVPHIQCGDGCDPQGLRDNSQFCLQRIHQGLIFYEKLLGSDIFTGEPSLLPDSPVGQLHASLLGLSQLLQPEGHHWETQQIPSLSPSQPWQRLLLRFKILRSLQAFVAVAARVFAHGAATLSP
chain 2: IWELKKDVYVVELDWYPDAPGEMVVLTCDTPEEDGITWTLDQSSEVLGSGKTLTIQVKEFGDAGQYTCHKGGEVLSHSLLLLHKKEDGIWSTDILKDQKEPKNKTFLRCEAKNYSGRFTCWWLTTISTDLTFSVKSSRGSSDPQGVTCGAATLSAERVRGDNKEYEYSVECQEDSACPAAEESLPIEVMVDAVHKLKYENYTSSFFIRDIIKPDPPKNLQLKPLKNSRQVEVSWEYPDTWSTPHSYFSLTFCVQVQGKSKREKKDRVFTDKTSATVICRKNASISVRAQDRYYSSSWSEWASVPCS
B2: humanized anti-human IL-17A/F antibody 339-134 mAb IgG1.1 (antibody, V domains shown)
VH: QVQLVQSGAEVKKPGASVKVSCKASGYTFNEYTMHWVKQAPGQRLEWMGGINPNSGGVSYNQNFKGKATLTVDTSASTAYMELSSLRSEDTAVYYCARGGDGYYTNYFDIDYWGQGTTVTVSS
VL: DIQMTQSPSSLSASVGDRVTITCSASSSVNYMHWYQQKPGKVPKLLIYDTSKLASGVPSRFSGSGSGTDFTLTISSLQPEDVATYYCQQWNSHPLTFGQGTKLEIKR
notes: IgG1.1/kappa; also called MVC978/MVC717; humanized parent
B3: Fab derived from the IL-17 arms of biAb3 (Lead Fab A3185F) (Fab, V domains shown)
VH: B2 VH
VL: not shown
notes: Expressed periplasmically in E. coli, purified by IMAC (tag not described); also called humanized lead Fab; biAb Fab
B4: hIL-23R-Fc (Fc fusion, human, UniProt Q5VWK5 24-353, looked up)
chain: GITNINCSGHIWVEPATIFKMGMNISIYCQAAIKNCQPRKLHFYKNGIKERFQITRINKTTARLWYKNFLEPHASMYCTAECPKHFQETLICGKDISSGYPPDIPDEVTCVIYEYSGNMTCTWNAGKLTYIDTKYVVHVKSLETEEEQQYLTSSYINISTDSLQGGKKYLVWVQAANALGMEESKQLQIHLDDIVIPSAAVISRAETINATVPKTIIYWDSQTTIEKVSCEMRYKATTNQTWNVKEFDTNFTYVQQSEFYLEPNIKYVFQVRCQETGKRYWQPWSSLFFHKTPETVPQVTSKAFQHDTWNSGLTVASISTGHLTSDNRGD
notes: Bought from R&D Systems; also called human IL-23 receptor; p19 specific IL-23 receptor; not shown: Fc part of the commercial fusion (R&D Systems) not described
B5: C/DVCV1 IgG1.1 (bispecific antibody)
heavy: QIQLVQSGPELKKPGETVEISCKASGYTFTDYLIFWVKQAPGKGLNWMGWINTETVEPTYADDFKGRFAFSLETSASTAHLLINNLKKEDTSTYFCARVPHLGPYYYAMDYWGQGTSVTVSSASTKGPSVFPLAPSSKSTSGGTAALGCLVKDYFPEPVTVSWNSGALTSGVHTFPAVLQSSGLYSLSSVVTVPSSSLGTQTYICNVNHKPSNTKVDKKVEPKSCGGGGSGGGGSQVTLKESGPGILQPSQTLSLTCSFSGFSLSTSGMGVGWIRQPSGKGLEWLANIWWDDDKRYNPALKSRLTISKDTSSNQVFLKIASVDTADTATYYCARIDYDYDRGAYHVMDYWGQGTSVTVSSEPKSSDKTHTCPPCPAPEAEGAPSVFLFPPKPKDTLMISRTPEVTCVVVDVSHEDPEVKFNWYVDGVEVHNAKTKPREEQYNSTYRVVSVLTVLHQDWLNGKEYKCKVSNKALPSSIEKTISKAKGQPREPQVYTLPPSRDELTKNQVSLTCLVKGFYPSDIAVEWESNGQPENNYKTTPPVLDSDGSFFLYSKLTVDKSRWQQGNVFSCSVMHEALHNHYTQKSLSLSPGK
light: DIVLKQSPASLGVALGQRATISCRASKSVSTSDFSYMHWYQQKPGQPPELLIYLASNLESGVPARFSGSGSGTDFTLNIHPVEEEDAATYYCQHSREFPPTFGAGTKLELKRTVAAPSVFIFPPSDEQLKSGTASVVCLLNNFYPREAKVQWKVDNALQSGNSQESVTEQDSKDSTYSLSSTLTLSKADYEKHKVYACEVTHQGLSSPVTKSFNRGECGGGGSGGGGSDIQMTQSPASLSVSVGETVTITCRTSENIFSNLAWYQQKQGKSPQLLVYDATNLADGVPSRFSGSGSGTQYSLKINSLQSEDFGTYYCQHFWYTPWTFGGGTKLEIK

Experiments:
[1] = biological target: human IL-23Rα/human IL-12Rβ1 on BaF3 transfectants (human, UniProt Q5VWK5 24-629; P42701 24-662); experiment: cell-based or functional assay
human IL-17A homodimer [2] = biological target: T1, human IL-17A homodimer (human, UniProt Q16552 24-155); experiment: cell-based or functional assay
[3] = biological target: T2, human IL-17A/F heterodimer (human, UniProt Q16552 24-155; Q96PD4 31-163); experiment: cell-based or functional assay
human IL-17F homodimer [4] = biological target: T3, human IL-17F homodimer (human, UniProt Q96PD4 31-163); experiment: cell-based or functional assay
T3 sequence: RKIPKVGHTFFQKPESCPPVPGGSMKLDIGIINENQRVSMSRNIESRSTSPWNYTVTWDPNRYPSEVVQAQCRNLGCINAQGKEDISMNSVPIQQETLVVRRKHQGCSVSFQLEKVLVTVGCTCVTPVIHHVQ

human IL-17A homodimer [5] = biological target: T1, human IL-17A homodimer; experiment: cell-based or functional assay; remark: listed apart in the source
[6] = biological target: T2, human IL-17A/F heterodimer; experiment: cell-based or functional assay; remark: listed apart in the source
human IL-17F homodimer [7] = biological target: T3, human IL-17F homodimer; experiment: cell-based or functional assay; remark: listed apart in the source
human IL-17A homodimer [8] = biological target: T1, human IL-17A homodimer; experiment: cell-based or functional assay; remark: listed apart in the source
[9] = biological target: T2, human IL-17A/F heterodimer; experiment: cell-based or functional assay; remark: listed apart in the source
human IL-17F homodimer [10] = biological target: T3, human IL-17F homodimer; experiment: cell-based or functional assay; remark: listed apart in the source
human IL-17A homodimer [11] = biological target: T1, human IL-17A homodimer; experiment: cell-based or functional assay; remark: listed apart in the source
[12] = biological target: T2, human IL-17A/F heterodimer; experiment: cell-based or functional assay; remark: listed apart in the source
human IL-17F homodimer [13] = biological target: T3, human IL-17F homodimer; experiment: cell-based or functional assay; remark: listed apart in the source
human IL-17A homodimer [14] = biological target: T1, human IL-17A homodimer; experiment: cell-based or functional assay; remark: listed apart in the source
[15] = biological target: T2, human IL-17A/F heterodimer; experiment: cell-based or functional assay; remark: listed apart in the source
human IL-17F homodimer [16] = biological target: T3, human IL-17F homodimer; experiment: cell-based or functional assay; remark: listed apart in the source
human IL-17A homodimer [17] = biological target: T1, human IL-17A homodimer; experiment: cell-based or functional assay; remark: listed apart in the source
[18] = biological target: T2, human IL-17A/F heterodimer; experiment: cell-based or functional assay; remark: listed apart in the source
human IL-17F homodimer [19] = biological target: T3, human IL-17F homodimer; experiment: cell-based or functional assay; remark: listed apart in the source
human IL-17A homodimer [20] = biological target: T1, human IL-17A homodimer; experiment: SPR Biacore T100, captured antibody, bivalent analyte model
[21] = biological target: T2, human IL-17A/F heterodimer; experiment: as above
human IL-17F homodimer [22] = biological target: T3, human IL-17F homodimer; experiment: as above
human IL-17A homodimer [23] = biological target: T1, human IL-17A homodimer; experiment: as above; remark: listed apart in the source
[24] = biological target: T2, human IL-17A/F heterodimer; experiment: as above; remark: listed apart in the source
human IL-17F homodimer [25] = biological target: T3, human IL-17F homodimer; experiment: as above; remark: listed apart in the source
human IL-17F homodimer [26] = biological target: T3, human IL-17F homodimer; experiment: X-ray co-crystal structure
[27] = biological target: B1; experiment: SPR (Biacore T100): hIL-23R-Fc captured on protein A, IL-23 (purified wild-type, and wild-type expression supernatant diluted 1:5) injected 3 min; response 10 s before the end of the injection, reference subtracted
human PDGF-C = human PDGF-C (human, UniProt Q9NRA1 235-345, limits assumed); experiment: cell-based or functional assay
Sequence of human PDGF-C (Q9NRA1 235-345 limits assumed): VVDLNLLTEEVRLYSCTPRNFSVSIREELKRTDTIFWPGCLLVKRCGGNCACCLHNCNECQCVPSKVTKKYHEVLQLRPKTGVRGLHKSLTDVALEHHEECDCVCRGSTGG

human PDGF-D = human PDGF-D (human, UniProt Q9GZP0 250-370, limits assumed); experiment: cell-based or functional assay
Sequence of human PDGF-D (Q9GZP0 250-370 limits assumed): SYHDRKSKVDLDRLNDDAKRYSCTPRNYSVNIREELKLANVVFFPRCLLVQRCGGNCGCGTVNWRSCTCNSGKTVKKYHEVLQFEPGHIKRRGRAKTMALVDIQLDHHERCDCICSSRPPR

Question: With B1 as the binder, how does the “EC50, pSTAT3 in BaF3/huIL-23Ra/huIL-12Rb1 transfectants” value [1] read?
Answer: 21 pM

Question: With B2 as the binder, how does the “IC50, NIH/3T3/KZ170 NF-kB luciferase reporter” value (human IL-17A homodimer [2]) read?
Answer: 1.4 nM

Question: What about the “IC50, NIH/3T3/KZ170 NF-kB luciferase reporter” value [3] of the same binder?
Answer: 0.26 nM

Question: And the “IC50, NIH/3T3/KZ170 NF-kB luciferase reporter” value (human IL-17F homodimer [4])?
Answer: 0.24 nM

Question: What about the “IC50, NIH/3T3/KZ170 NF-kB luciferase reporter” value (human IL-17A homodimer [5]) of the same binder?
Answer: 1.3 nM

Question: And the “IC50, NIH/3T3/KZ170 NF-kB luciferase reporter” value [6]?
Answer: 0.27 nM

Question: What about the “IC50, NIH/3T3/KZ170 NF-kB luciferase reporter” value (human IL-17F homodimer [7]) of the same binder?
Answer: 0.24 nM

Question: What about the “IC50, G-CSF induction in primary human SAEC” value (“IC50, G-CSF induction” below) (human IL-17A homodimer [8]) of the same binder?
Answer: 0.5 nM

Question: What about the “IC50, IL-6 induction in primary human fibroblasts (HFFF)” value (“IC50, IL-6 induction” for short) (human IL-17A homodimer [8]) of the same binder?
Answer: 0.9 nM

Question: And the “IC50, G-CSF induction” value [9]?
Answer: 1.3 nM

Question: And the “IC50, IL-6 induction” value [9]?
Answer: 13 nM

Question: And the “IC50, G-CSF induction” value (human IL-17F homodimer [10])?
Answer: 1.1 nM

Question: What about the “IC50, IL-6 induction” value (human IL-17F homodimer [10]) of the same binder?
Answer: 15 nM

Question: What about the “IC50, NIH/3T3/KZ170 NF-kB luciferase reporter” value (human IL-17A homodimer [11]) of the same binder?
Answer: 3 nM

Question: What about the “IC50, NIH/3T3/KZ170 NF-kB luciferase reporter” value [12] of the same binder?
Answer: 0.9 nM

Question: And the “IC50, NIH/3T3/KZ170 NF-kB luciferase reporter” value (human IL-17F homodimer [13])?
Answer: 0.4 nM

Question: And the “IC50, NIH/3T3/KZ170 NF-kB luciferase reporter” value (human IL-17A homodimer [14])?
Answer: 1.2 nM

Question: And the “IC50, NIH/3T3/KZ170 NF-kB luciferase reporter” value [15]?
Answer: 0.23 nM

Question: What about the “IC50, NIH/3T3/KZ170 NF-kB luciferase reporter” value (human IL-17F homodimer [16]) of the same binder?
Answer: 0.28 nM

Question: And the “IC50, IL-6 induction” value (human IL-17A homodimer [17])?
Answer: 2 nM

Question: What about the “IC50, IL-6 induction” value [18] of the same binder?
Answer: 22 nM

Question: And the “IC50, IL-6 induction” value (human IL-17F homodimer [19])?
Answer: 23 nM

Question: And the Kd (human IL-17A homodimer [20])?
Answer: 1 nM

Question: And the koff (human IL-17A homodimer [20])?
Answer: 0.003 s⁻¹

Question: And the kon (human IL-17A homodimer [20])?
Answer: 2e+06 M⁻¹ s⁻¹

Question: What about the Kd [21] of the same binder?
Answer: 0.2 nM

Question: What about the koff [21] of the same binder?
Answer: 0.0005 s⁻¹

Question: What about the kon [21] of the same binder?
Answer: 2e+06 M⁻¹ s⁻¹

Question: What about the Kd (human IL-17F homodimer [22]) of the same binder?
Answer: 0.1 nM

Question: And the koff (human IL-17F homodimer [22])?
Answer: 0.0002 s⁻¹

Question: And the kon (human IL-17F homodimer [22])?
Answer: 2e+06 M⁻¹ s⁻¹

Question: What about the Kd (human IL-17A homodimer [23]) of the same binder?
Answer: 1 nM

Question: What about the koff (human IL-17A homodimer [23]) of the same binder?
Answer: 0.003 s⁻¹

Question: What about the kon (human IL-17A homodimer [23]) of the same binder?
Answer: 2e+06 M⁻¹ s⁻¹

Question: What about the Kd [24] of the same binder?
Answer: 0.2 nM

Question: And the koff [24]?
Answer: 0.0005 s⁻¹

Question: And the kon [24]?
Answer: 2e+06 M⁻¹ s⁻¹

Question: What about the Kd (human IL-17F homodimer [25]) of the same binder?
Answer: 0.1 nM

Question: And the koff (human IL-17F homodimer [25])?
Answer: 0.0002 s⁻¹

Question: What about the kon (human IL-17F homodimer [25]) of the same binder?
Answer: 2e+06 M⁻¹ s⁻¹

Question: Does B3 bind (human IL-17F homodimer [26])?
Answer: binds

Question: Does B4 bind [27]?
Answer: binds

Question: B5 was tested. Which “IC50, NHLF proliferation (3H-thymidine)” value (human PDGF-C) did it give?
Answer: 0.09 nM

Question: And the “IC50, NHLF proliferation (3H-thymidine)” value (human PDGF-D)?
Answer: 20 nM
